For this assay, the target named is human Hsp90β (human, UniProt P08238 1-724). Kind of assay: SPR. On the technique in general: In SPR one partner is held on a chip, and binding of the other changes the refractive index at the surface.
human Hsp90β, sequence (P08238 whole entry): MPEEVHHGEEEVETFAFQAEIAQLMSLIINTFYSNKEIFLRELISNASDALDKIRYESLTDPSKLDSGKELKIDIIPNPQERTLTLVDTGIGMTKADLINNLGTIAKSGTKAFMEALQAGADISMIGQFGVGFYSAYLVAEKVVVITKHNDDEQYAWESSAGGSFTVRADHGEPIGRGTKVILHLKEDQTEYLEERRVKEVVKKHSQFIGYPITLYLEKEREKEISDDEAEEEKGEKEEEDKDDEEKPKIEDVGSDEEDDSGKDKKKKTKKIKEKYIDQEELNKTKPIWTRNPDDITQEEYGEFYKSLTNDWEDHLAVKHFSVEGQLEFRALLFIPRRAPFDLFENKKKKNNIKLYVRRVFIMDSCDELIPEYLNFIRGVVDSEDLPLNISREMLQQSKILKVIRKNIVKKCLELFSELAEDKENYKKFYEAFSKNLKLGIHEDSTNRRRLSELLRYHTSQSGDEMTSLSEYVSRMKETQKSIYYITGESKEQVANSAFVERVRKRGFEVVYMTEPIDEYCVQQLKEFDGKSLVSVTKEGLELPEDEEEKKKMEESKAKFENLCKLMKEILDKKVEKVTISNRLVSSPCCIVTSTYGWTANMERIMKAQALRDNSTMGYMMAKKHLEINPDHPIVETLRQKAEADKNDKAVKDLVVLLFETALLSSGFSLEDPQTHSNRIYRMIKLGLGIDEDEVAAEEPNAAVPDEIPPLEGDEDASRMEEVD

B1: Aha1 N-terminal domain (amino acids 1-162) (domain or fragment)
chain: MAKWGEGDPRWIVEERADATNVNNWHWTERDASNWSTDKLKTLFLAVQVQNEEGKCEVTEVSKLDGEASINNRKGKLIFFYEWSVKLNWTGTSKSGVQYKGHVEIPNLSDENSVDEVEISVSLAKDEPDTNLVALMKEEGVKLLREAMGIYISTLKTEFTQG
The term Kd denotes the constant that tells how readily two partners part at equilibrium. In turn, B1 yielded a Kd of 2.5 µM.

B2: Aha1 C-terminal domain (amino acids 163-338, with the linker region 163-200) (domain or fragment)
chain: MILPTMNGESVDPVGQPALKTEERKAKPAPSKTQARPVGVKIPTCKITLKETFLTSPEELYRVFTTQELVQAFTHAPATLEADRGGKFHMVDGNVSGEFTDLVPEKHIVMKWRFKSWPEGHFATITLTFIDKNGETELCMEGRGIPAPEEERTRQGWQRYYFEGIKQTFGYGARLF
The molecule B2 displayed a Kd of 3.8 µM.

The record behind these values is article PMC2836968 (Molecular Biology of the Cell, 2010).
